From the supplement of paper PMC12764529 come the findings set out here.

Series [1] is described as follows: folding stability dG unfold (combined trypsin and chymotrypsin); higher = more stable. An outline of the steps: (§1)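 Mini-proteins designed to be under 80 residues and free of cysteine were carried in a PA-tagged cDNA display construct and digested with trypsin and with chymotrypsin. Each protease was applied at 11 threefold-diluted concentrations, alongside a no-protease condition, before sequencing. K50 came from Bayesian fitting of the sequencing counts, and unfolding free energy was obtained by comparing it with a sequence-predicted unfolded-state K50 and a shared folded-state K50, for each protease separately or for both together. Designs were retained only if their AlphaFold2 dimer inter-PAE exceeded 15.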

A short description of series [2]: folding stability dG unfold from trypsin proteolysis; higher = more stable. Summed up:
as §1

Series [3] is described as follows: folding stability dG unfold from chymotrypsin proteolysis; higher = more stable. Summed up: as §1

± gives the half width of the 95% confidence interval. A value given as a limit tells only on which side of the number the result lay.

For the sequence “SDDIKNMPFRITEIEPLPPGDPIPPGQRIRITIQMPDFPGQPFEFDIRVDPENGMIYMEMGGMPFEIPIKSA [r9_243_TrROS]”, the “folding stability dG unfold” value is 1.67 ± 0.15 kcal/mol in series [1], 1.6 ± 0.019 kcal/mol in series [2] and 1.6 ± 0.13 kcal/mol in series [3].
For “SDEGYKVEINPMIHRTDGKVTIMFMIQIKPGLDDLKIKIKLRLPDGKPMKVDYQRNPDNGFIMVSATMPPSA [r9_159_TrROS]”, in that order: 3.53 ± 0.14 kcal/mol, 2.91 ± 0.1 kcal/mol and 4.21 ± 0.066 kcal/mol.
For “SDETVELPTVYTLYFGKDGTPRYYITVTLGDGPVAMELPEVSPDVKDGDVVPVKVPSSVVTSYSVSSAPASA [r9_769_JUSTAS]”, in that order: 0.808 ± 0.059 kcal/mol, 0.671 ± 0.071 kcal/mol and 0.777 ± 0.096 kcal/mol.
The corresponding values for “SDKLAKLLEDELEKAGYEVVSVEVRYDPEKGLLYVNALVRRKDDPTWYRVRAVYNPETDELLEVKIEPLPSA [r9_814_TrMRF]” are over 6 kcal/mol, 5.58 ± 0.21 kcal/mol and 6.29 ± 0.11 kcal/mol.
With “SDKVVIHFYPGMPVSNIVERVADNPDMTIEIVMPPGMKPSWYNYIRKALRDANIPKDQKVEIEWVPYDDMSA [r9_670_TrROS]”, the “folding stability dG unfold” value in series [1] was found to be 3.59 ± 0.081 kcal/mol; in series [2], 3.11 ± 0.12 kcal/mol; in series [3], 3.92 ± 0.042 kcal/mol.
For “SEAEVEVEVLPGPDAVVVRVRLPGRDEVVELRVLDPHPGEGRVLVAVSPGDDDTVVVRDLSPEDIKALLASA [r9_1221_TrMRF]”, in that order: 1.5 ± 0.056 kcal/mol, 1.843 ± 0.018 kcal/mol and 0.973 ± 0.055 kcal/mol.
For “SEAKTMSPEELKEFIEEYIEEERKKNPGKPVRIAIEDLKEKFPGFSPEELKKLLGLSEEELENGAIEIEPSA [r9_525_TrMRF]”, in that order: 2.22 ± 0.24 kcal/mol, 1.81 ± 0.087 kcal/mol and 2.38 ± 0.11 kcal/mol.
In the case of “SEEIIKALEEAGYEVESIEYDEETKTVTITIYRKNKETGKIEKKTITIEVEPGMTEEELLALARELLEKESA [r9_184_TrROS_Hall]”, the “folding stability dG unfold” value in series [1] is 4.83 ± 0.66 kcal/mol; in series [2] it was 4.77 ± 0.93 kcal/mol; in series [3], 4.71 ± 0.31 kcal/mol.
The corresponding values for “SEETLRILIRDPATGELREIEVRAGETVTVTFPDGSTVTLRITVVAAPPPPPKTVTLDPNETVEEGETVLSA [r9_467_TrROS_Hall]” are 2.1 ± 0.092 kcal/mol, 2.24 ± 0.084 kcal/mol and 1.9 ± 0.038 kcal/mol.
Consider “SEEVEIEIRIRVEVDSLEEARALAEALEELGFEVEVKVVERDGKLVVEVTIRIRVPAPPPPPLSEEELKASA [r9_863_TrROS_Hall]”, for which the figures for the “folding stability dG unfold” value in series [1], in series [2] and in series [3] were 2.17 ± 0.19 kcal/mol, 2.49 ± 0.11 kcal/mol and 1.55 ± 0.14 kcal/mol, respectively.
In the case of “SEFELKIEEEEDPATGVLRVTVTFNTSLEDAKEKLKELLKESGLNAVIKSVEEKKVGPEVTITFEIEIPPSA [r9_164_JUSTAS]”, the figures for the “folding stability dG unfold” value in series [1], in series [2] and in series [3] were 3.05 ± 0.057 kcal/mol, 2.71 ± 0.065 kcal/mol and 3.27 ± 0.052 kcal/mol, respectively.
For “SEKIKELIKKLAEELNLKIVKIEKKEDGKIIIEFENGIKIEIEIDPEKKNKIKIKIEKTKNGKLKITIEPSA [r9_809_TrROS_Hall]”, in that order: 2.24 ± 0.12 kcal/mol, 1.67 ± 0.11 kcal/mol and 2.65 ± 0.14 kcal/mol.
In the case of “SEKIVIEFPNPEEATVELIKSIIKPYLEPGEKVKIKVFSKDGKPLFEKELEFNEVEEVPKEKDYLIVIEKSA [r9_264_TrMRF]”, the “folding stability dG unfold” value was determined as 1.14 ± 0.21 kcal/mol in series [1], 0.97 ± 0.076 kcal/mol in series [2] and 1.3 ± 0.1 kcal/mol in series [3].
For “SEKPLVTLELELVVETEEQARAAVEALLAALPEEEIVDIRVEVEEVDVFENGELVGRRRRVRVTIVVRRPSA [r9_605_TrROS_Hall]”, in that order: 4.41 ± 0.25 kcal/mol, 4.31 ± 0.24 kcal/mol and 4.06 ± 0.26 kcal/mol.
The corresponding values for “SEKTVLSSSTSTSPTSITTTTTVKLPDGSLITTTTTYSSVTAAPTPAPGGTLVPTYSLPTTTTTTTLPPASA [r9_240_JUSTAS]” are 0.63 ± 0.11 kcal/mol, 0.845 ± 0.025 kcal/mol and 0.309 ± 0.13 kcal/mol.
The corresponding values for “SEMSVEEILKKIAEELLKKNPNKEVTKEIEIEFEKPDPEGKRLLKEKVKATIKVTPDKIEILSESREILLSA [r9_361_JUSTAS]” are 1.31 ± 0.18 kcal/mol, 1.52 ± 0.066 kcal/mol and 1.07 ± 0.054 kcal/mol.
With “SEPRYHVEIRLPVLLVVPPELLEPDPERDSYRLPEDDLPVHPDAVIPREVTFSGPMTAEEVVRRTLALLSSA [r9_165_TrMRF]”, the “folding stability dG unfold” value was 1.04 ± 0.085 kcal/mol in series [1], 0.455 ± 0.11 kcal/mol in series [2] and 1.38 ± 0.13 kcal/mol in series [3].
For “SEPWELVEERELPPNAVITFPNGEKLEIDPEKARVRVWRRPDSVRVLVVLKDGTVLEFEFYAPPRVTDDDSA [r9_348_TrMRF]”, in that order: 2.69 ± 0.1 kcal/mol, 2.62 ± 0.074 kcal/mol and 2.58 ± 0.033 kcal/mol.
